# Results reported in US20220218614A1, “IONIZABLE CATIONIC LIPIDS AND LIPID NANOPARTICLES, AND METHODS OF SYNTHESIS AND USE THEREOF” (Tidal Therapeutics, Inc., priority 2020, published 2022).
# B1: mutOKT8: non-functional mutated OKT8 Fab, SEQ ID NO: 22 and 23 (antibody)
# heavy: QVQLVQSGAEDKKPGASVKVSCKASGFNIKDTYIHWVRQAPGQGLEWMGRIDPANDNTLYASKFQGRVTITADTSSNTAYMELSSLRSEDTAVYYCGRGAGAYVFDHWGQGTTVTVSSASTKGPSVFPLAPSSKSTSGGTAALGCLVKDYFPEPVTVSWNSGALTSGVHTFPAVLQSSGLYSLSSVVTVPSSSLGTQTYICNVNHKPSNTKVDKKVEPKSSDKTHTC
# light: DIVMTQSPSSLSASVGDRVTITCRTSRSISAALAWYQEKPGKAPKLLIYSGSTLQSGVPSRFSGSGSGTDFTLTISSLQPEDFATYYCQQHNENPLTFGQGTKVEIKRTVAAPSVFIFPPSDEQLKSGTASVVCLLNNFYPREAKVQWKVDNALQSGNSQESVTEQDSKDSTYSLSSTLTLSKADYEKHKVYACEVTHQGLSSPVTKSFNRGES
# What was measured:
# Assay type in all cases: cell-based
# primary human NK cells = assay: LNP transfection of co-cultured human T cells and NK cells: NK cells; conditions: Lipid 8 LNP, 2.5 ug/mL mRNA, 24 hours
# Method: CD3-depleted PBMCs were purified using magnetic-based CD3 positive selection and retaining of the negative fraction. 20 million CD3 depleted PBMCs were added to 1 well of a 6 well GREX plate in media containing 10 ng/mL IL-15 for 7 days. On day 7, each well was split in 2 and cells were cultured further in media containing 10 ng/mL IL-15 for an additional 7 days. On day 14, NK cells were concentrated to 1 million cells/mL in preparation for co-transfection with primary human T cells.
# LNPs were prepared using the mixing process described in Example 6, the buffer exchange process described in Example 25. The LNPs were formulated using eGFP encoding mRNA (TriLink Biotechnologies, California, US), Lipid 8 as the ionizable lipid, and labeled with 0.01 mol % DiIC18(5)-DS (Invitrogen, Massachusetts, US). Fab-lipid conjugates generated from methods described in Example 4 while generation of Nb-conjugated differed in using 1:1:4 Nb:DSPE-SKPEG-maileimide:DSPE-2KPEG-OCH3 and a 50 kD UF membrane (Millipore Corp, Billerica, Mass. USA) for separation of Nb-conjugate from free Nb. Using methods similar to Example 12, conjugated Fabs and conjugated Nb were post-inserted at various densities (Table 41) into LNPs containing Lipid 8 and GFP mRNA with DiI dye. […]. […]
# (§1) 24 hours after LNP transfection, cell culture media was aspirated from T cell and NK cell co-cultures after centrifugation. […] Following acquisition by flow cytometry, T cells and NK cells were analyzed independently using FlowJo (flow cytometry analysis software). In either CD3+ cells (T cells) or CD56+ cells (NK cells), the frequency of GFP positive events relative to GFP negative events was calculated (FIG. 64A). Additionally, the overall fluorescence of GFP was quantified by assessment of mean fluorescence intensity (MFI, FIG. 64B). […] Together, these metrics enabled quantification of LNP transfection efficiency of all targeted LNPs tested in primary human T cell and NK cell co-cultures.
# primary human T cells = assay: LNP transfection of co-cultured human T cells and NK cells: T cells; conditions: Lipid 8 LNP, 2.5 ug/mL mRNA, 24 hours
# Method: Primary human T cells were purified using magnetic-based CD3 negative selection. 20 million purified T cells were activated using anti-CD3/anti-CD28 coated beads for 48 hours in media containing 100 IU/mL IL-2. Following activation, activation beads were removed, and T cells were expanded for an additional 48 hours in media containing 100 IU/mL IL-2. After the expansion period, T cells were concentrated to 1 million cells/mL in preparation for co-transfection with primary human NK cells.
# LNPs were prepared using the mixing process described in Example 6, the buffer exchange process described in Example 25. […]
# as §1
# human whole blood = assay: Whole blood transfection of immune cells with Fab targeted mRNA LNPs; conditions: Lipid 8 LNP, 2.5 μg/mL mCherry mRNA, 24 hours
# Method: Venous blood from healthy volunteers was anti-coagulated in heparin tubes (BD Biosciences #367526) and seeded at 50 μL in a 96-well round-bottom plate. Transfection of whole blood was carried out simply by adding nanoparticles containing 5 μg/mL mRNA to the cells and co-culturing at 37° C. until the time of analysis. To assess transfection efficiency, cells were analyzed 24-hours post-transfection by flow cytometry. LNPs used (with and without post-inserted targets) at 2.5 μg/mL:RDM073.23. Cells obtained from human blood were analyzed by flow cytometry. Prior to the analysis of whole blood transfection efficiency, red blood cells were lysed twice with VersaLyse Lysing Solution (Beckman Coulter #A09777) for 10 minutes at room temperature. […]
# Compensation for each fluorochrome was performed in the multicolor flow panels using positive and negative compensation beads. Fluorescence minus one (FMO) samples and unstained controls were included to determine the level of background fluorescence and to set the gates for the negative cell populations versus the positive cell populations.
# All samples were acquired on a BD LSRFortessa X-20 (BD Biosciences) running […] software (Becton Dickinson). All data collected were analyzed using FlowJo 10.7.1 software and GraphPad Prism version 9.0. […]
molecule,measurement,setting,value
B1,"transfection of NK cells in T/NK co-culture (% GFP, GFP MFI, DiI), in words",primary human NK cells,high % DiI and % GFP
same,"transfection of T cells in T/NK co-culture (% GFP, GFP MFI, DiI), in words",primary human T cells,high % DiI and % GFP
same,"% mCherry+ cells (transfection) in whole blood, in words",human whole blood,did not exhibit transfection of any of the immune cell types
